Results: patent US20220169693A1, “Screening Assays, Modulators and Modulation of Intracellular Signalling Mediated by Immunoglobulin Superfamily Cell Adhesion Molecules” (Monash University, priority 2018, published 2022)

Legend:
Type in all cases: cell-based
[1] = molecular target: T1, full length murine ALCAM1-583 (Mus musculus, UniProt Q61490); experiment: Ang II-induced p65/PCNA expression in AT1R-CHO cells transfected with full length murine ALCAM (qRT-PCR)
T1 construct: host or cells: AT1R-CHO (CHO stably transfected with human AT1R-Rluc8), transient transfection; untagged clone in pCMV6
T1 sequence (Q61490 28-583): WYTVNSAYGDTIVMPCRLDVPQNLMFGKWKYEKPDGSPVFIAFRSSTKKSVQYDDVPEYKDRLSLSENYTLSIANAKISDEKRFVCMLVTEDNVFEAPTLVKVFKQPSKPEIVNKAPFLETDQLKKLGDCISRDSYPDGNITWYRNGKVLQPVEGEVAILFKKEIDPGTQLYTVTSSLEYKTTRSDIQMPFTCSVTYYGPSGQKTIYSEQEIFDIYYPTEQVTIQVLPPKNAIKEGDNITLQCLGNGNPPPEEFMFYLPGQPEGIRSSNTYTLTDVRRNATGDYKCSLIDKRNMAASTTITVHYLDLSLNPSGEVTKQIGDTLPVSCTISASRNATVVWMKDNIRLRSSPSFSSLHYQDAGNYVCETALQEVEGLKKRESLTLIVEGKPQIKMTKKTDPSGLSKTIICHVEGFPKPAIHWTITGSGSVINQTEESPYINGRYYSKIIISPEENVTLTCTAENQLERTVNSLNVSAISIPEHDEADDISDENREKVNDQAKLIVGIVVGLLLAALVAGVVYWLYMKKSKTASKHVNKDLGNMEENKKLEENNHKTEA
Method: (§1) Adult retinal pigment epithelial (ARPE) cells were cultured in Dulbecco's modified Eagle's medium (DMEM)/F12 endothelial cell growth supplement (ECGS) supplemented media. Chinese Hamster Ovary (CHO) cells were cultured using F12 media (10% FCS with 2 mM glutamine). Human microvascular endothelial cells (HMEC) were cultured in MCDB 131 medium (10% FCS with 10 mM glutamine, EGF and hydrocortisone).
(§2) 100 ng of AT1R-Rluc8 construct was transfected into CHO cells using Lipofectamine 2000 (Thermo). Stable transfectants were selected using G418. AT1R-CHO were then transiently transfected with the IgSF CAM and/or RAGE constructs using Lipofectamine 2000 (Invitrogen) and incubated for 16h.
(§3) Oligonucleotides were designed and ordered to generate the ALCAM, BCAM and MCAM intracellular (cytosolic) domains. These included a 5′ NheI site, Kozak sequence and initiating Methionine and then DNA sequences corresponding to ALCAM residues 552-583, BCAM residues 569-628 and MCAM residues 584-637 respectively (Note that as residue 551 of ALCAM is Methionine, the cytosolic tail of ALCAM effectively corresponded to residues 551-583). The pCIneo parental vector was digested with NheI and NotI restriction enzymes, and the DNA of the fragments of the ALCAM, BCAM and MCAM tails/cytosolic domains were ligated into the digested plasmid. After transformation and recovery, colonies were screened and individual clones sequenced. The sequence of the insert was confirmed by DNA sequencing (Micromon, Monash University). A full-length clone of Mouse ALCAM (BC027280) was purchased from Origene. The untagged clone was supplied in the vector pCMV6. […]
(§4) After 2 hours of exposure to Ang II (1 μM) cells were placed in Trizol, mRNA extracted and cDNA synthesized. Changes in the gene expression of the NFκB subunit, p65 (RelA) or NFκB-activated target genes (e.g ICAM-1) were estimated by quantitative real-time RT-PCR, performed using the TaqMan system based on real-time detection of accumulated fluorescence (ABI Prism 7700, Perkin-Elmer Inc, PE Biosystems, Foster City, Calif., USA). […]

[2] = molecular target: T2, human ALCAM (ALCAM1-583, cytosolic tail ALCAM551-583) (Homo sapiens, UniProt Q13740); experiment: Ang II-induced p65/PCNA expression in AT1R-CHO cells transfected with human ALCAM (full length or cytosolic tail); details: Ang II 1 μM, co-transfection (FIG. 3G, 1E)
T2 construct: expressed in transfected cells; host or cells: AT1R-CHO (CHO stably transfected with human AT1R-Rluc8), transient transfection
T2 sequence (Q13740 551-583): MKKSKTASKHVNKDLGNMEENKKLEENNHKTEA
Method: as §1, §2
(§5) Oligonucleotides were designed and ordered to generate the ALCAM, BCAM and MCAM intracellular (cytosolic) domains. These included a 5′ NheI site, Kozak sequence and initiating Methionine and then DNA sequences corresponding to ALCAM residues 552-583, BCAM residues 569-628 and MCAM residues 584-637 respectively (Note that as residue 551 of ALCAM is Methionine, the cytosolic tail of ALCAM effectively corresponded to residues 551-583). The pCIneo parental vector was digested with NheI and NotI restriction enzymes, and the DNA of the fragments of the ALCAM, BCAM and MCAM tails/cytosolic domains were ligated into the digested plasmid. After transformation and recovery, colonies were screened and individual clones sequenced. The sequence of the insert was confirmed by DNA sequencing (Micromon, Monash University). A full-length clone of Mouse ALCAM (BC027280) was purchased from Origene. The untagged clone was supplied in the vector pCMV6. Overlapping DNA sequences were ordered to generate the ALCAM559-580 fragment oligonucleotide. These included a 5′ NheI site, Kozak sequence and initiating Methionine and then DNA sequences corresponding to ALCAM residues 559-580. The pCIneo parental vector was digested with NheI and NotI restriction enzymes, and the ALCAM559-580 construct DNA was ligated into the digested plasmid. After transformation and recovery, colonies were screened and individual clones sequenced.
(§6) After 2 hours of exposure to Ang II (1 μM) cells were placed in Trizol, mRNA extracted and cDNA synthesized. Changes in the gene expression of the NFκB subunit, p65 (RelA) or NFκB-activated target genes (e.g ICAM-1) were estimated by quantitative real-time RT-PCR, performed using the TaqMan system based on real-time detection of accumulated fluorescence (ABI Prism 7700, Perkin-Elmer Inc, PE Biosystems, Foster City, Calif., USA). Gene expression was normalized to 18S mRNA and reported as fold change compared to the level of expression in untreated control mice/cells, which were given an arbitrary value of 1.

[3] = test system: human ALCAM (ALCAM1-583, cytosolic tail ALCAM551-583); experiment: as above; details: Ang II 1 μM, co-transfection, text: cytosolic tail ALCAM551-583, legend: full length ALCAM1-583
Method: as §1, §2, §5, §6

[4] = molecular target: T3, cytosolic tail of human EpCAM, EpCAM289-314 (Homo sapiens, UniProt P16422); experiment: Ang II-induced p65 expression in AT1R-CHO cells transfected with cytosolic tail of EpCAM; details: Ang II 1 μM, co-transfection (FIG. 3J)
T3 construct: corresponds to residues 289-314 of EpCAM plus an initiating Methionine; initiating Methionine (N); expressed in transfected cells; host or cells: AT1R-CHO (CHO stably transfected with human AT1R-Rluc8), transient transfection
T3 sequence (P16422 with tags, fused parts or gaps limits assumed): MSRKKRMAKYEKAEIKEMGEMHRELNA
Method: as §1, §2, §6

[5] = molecular target: T4, full length RAGE1-404 transactivated by C5a receptor 1 (Homo sapiens, UniProt Q15109); experiment: C5a-induced ICAM-1 expression in ARPE cells transfected with C5aR1 and full length RAGE; details: C5a 1 μM, co-expression (FIG. 6B)
T4 construct: expressed in transfected cells; host or cells: human ARPE (adult retinal pigment epithelial) cells

[6] = molecular target: T1, full length murine ALCAM1-583; experiment: S100A8/A9-induced PCNA expression in CHO cells transfected with full length murine ALCAM; details: S100A8/A9 1 μM 2 h, co-transfection (FIG. 4A)
Method: as §1
as §3, with “plasmid.” for “plasmid. After transformation and recovery, colonies were screened and individual clones sequenced. The sequence of the insert was confirmed by DNA sequencing (Micromon, Monash University). A full-length clone of Mouse ALCAM (BC027280) was purchased from Origene. The untagged clone was supplied in the vector pCMV6.”
as §4, with “After 2 hours of exposure to Ang II (1 μM) cells were placed in Trizol, mRNA extracted and cDNA synthesized.” left out

full length RAGE1-404 = full length RAGE1-404 (Homo sapiens, UniProt Q15109); experiment: S100A8/A9-induced PCNA expression in CHO cells transfected with full length RAGE; parameters: expressed in transfected cells; host or cells: CHO cells; details: S100A8/A9 1 μM 2 h, co-transfection (FIG. 4B)
full length RAGE1-404, sequence (Q15109 23-404): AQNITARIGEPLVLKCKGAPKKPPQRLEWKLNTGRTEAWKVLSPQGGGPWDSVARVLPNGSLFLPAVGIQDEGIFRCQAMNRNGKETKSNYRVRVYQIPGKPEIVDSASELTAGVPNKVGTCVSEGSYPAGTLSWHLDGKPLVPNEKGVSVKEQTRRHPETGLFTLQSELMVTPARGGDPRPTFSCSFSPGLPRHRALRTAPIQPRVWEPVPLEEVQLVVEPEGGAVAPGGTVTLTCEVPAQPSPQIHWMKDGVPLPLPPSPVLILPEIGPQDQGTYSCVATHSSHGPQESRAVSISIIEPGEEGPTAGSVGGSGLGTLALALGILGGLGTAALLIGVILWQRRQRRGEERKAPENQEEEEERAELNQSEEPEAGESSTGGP

T4 sequence (Q15109 23-404): as above

- induction of p65-NFκB expression by Ang II via AT1R-dependent transactivation of full length murine ALCAM1-583 ([1]; Ang II 1 μM 2 h, co-transfection of the construct, vs pCIneo (FIG. 3B, 5B)): prevents induction
- p65-NFκB dependent induction of PCNA expression by Ang II via full length murine ALCAM1-583 ([1]; Ang II 1 μM, co-transfection (FIG. 3C)): prevents induction
- induction of p65-NFκB expression by Ang II via transactivation of the cytosolic tail of human ALCAM, ALCAM551-583 [2]: prevents induction
- induction of p65-NFκB expression by Ang II via transactivation of EpCAM289-314 [4]: prevents induction
- RAGE-dependent induction of ICAM-1 expression following transactivation of RAGE by C5a receptor 1 [5]: inhibits
- ligand-dependent signalling (PCNA expression) via murine ALCAM activated by S100A8/A9 [6]: inhibited
- ligand-dependent signalling (PCNA expression) via full length RAGE activated by S100A8/A9 (full length RAGE1-404): inhibited
Sequence: MKHVNKDLGNMEENKKLEENNHK [ALCAM559-580]
- induction of p65-NFκB expression by Ang II via transactivation of human ALCAM (FIG. 3E) [3]: prevents induction
- p65-NFκB dependent induction of PCNA expression by Ang II via human ALCAM (FIG. 3F) [3]: prevents induction
